{
  "source": "paper PMC4704858",
  "about": "(Science (New York, N.Y.), 2015)",
  "proteins": {"B1": {"name": "MvINS, an Insig homolog from Mycobacterium vanbaalenii PYR-1 (wild type) (natural protein)", "chain": "MRLRISEAVVLFLLGAVAALIGDHSHVVTGTTVYHTDAVPFVWSSPFWFPILVGAATASLAELRLHLPAPRDGVTARQALGGVAAVVGTYVTTALVHAFPVVPVTALVCAAAAITWCVLGDGPGAACGVVIAVIGPAVEIALVQLGVFAYHPDSDGLFGVAPFLAPLYFAFGVVAALLGELAVARRPQLGPPVCDTVSRGPGAG"}},
  "target": "the molecule itself",
  "test": "crystal structure",
  "data": [
    {"protein": "B1", "values": [
      {"measurement": "stoichiometry N", "result": 3}
    ]}
  ]
}
